Source: patent US20260022144A1, “ANALGESIC POLYPEPTIDE” (Shanghai Puyou Biomedical Co., Ltd., priority 2022, published 2026)

Assays:
SNL pain model in rats = experiment: SNL (spinal nerve ligation) pain model in rats, mechanical allodynia test; type: in vivo, rat; conditions: SD rats, 1 h after administration
Procedure: A summary of the method for inducing pain model in rats by means of spinal nerve ligation is provided hereinafter. Briefly, male SD rats were anesthetized with Zoletil R 50+xylazine hydrochloride (20 mg/kg+8 mg/kg, intraperitoneal injection). The surgical areas on the waist regions of the animals were shaved, and the skin was disinfected with iodophor and 70% v/v ethanol for three times. The left spinal nerves L5 and L6 of the animals were isolated, tightly ligated with 6-0 silk suture, and the wounds were sutured.
On the 11th day post operation, the animals were acclimated to the experimental environment, 15 minutes/day, for 3 consecutive days.
Briefly, after SNL modeling, 24 animals were randomly divided into 3 groups (Groups 2, 3 and 4, N=8/group). Group 1 (a Sham group, for which the 10 animals received essentially the same operation procedure as other groups but their left spinal nerves L5 and L6 were neither isolated nor ligated) was used as the control group. The test articles were administrated to the animals according to the protocol shown in Table 5, and mechanical allodynia tests were respectively performed 1h after administration according to the method as recited in Example 1.
Briefly, after SNL modeling, 30 animals were randomly divided into 3 groups (Group 1, N=6/group; Groups 2 and 3, N=12/group). Various polypeptides of the present disclosure were administered to the animals from Groups 2 and 3, and the animals were subjected to mechanical allodynia tests 1 h after administration according to the method as recited in Example 1.

[1] = tested on: bone pain model induced by Walker 256 breast cancer cells in rats; experiment: Bone pain model induced by Walker 256 breast cancer cells in rats, mechanical allodynia test; type: in vivo, rat; conditions: Wistar rats; for pain thresholds (50% PWT) of treatment group vs model group: 60 mg/kg i.v. once a day
Procedure: 28 female Wistar rats in total were randomly divided into 3 groups based on body weights, with 8 rats in the Sham group (Group 1, administered with vehicle (normal saline)), 10 rats in the model group (Group 2, administered with vehicle (normal saline)) and 10 rats in the treatment group (Group 3, administered with 60 mg SEQ ID NO: 29/kg).
A summary of the method for inducing bone pain model in rats by means of intratibial injection of a suspension of Walker 256 breast cancer cells is provided hereinafter. Briefly, the rats were anesthetized, then 4 μL of a suspension of Walker 256 cancer cells (containing about 4× 10^5 cells) was injected into the tibia cavity of the right hind limb of the rats (day 0). The rats in Sham group were injected with an equal volume of normal saline.
After injection of cancer cells (day 0), administration was started on the next day (day 1) and performed once a day for a consecutive period of 14 days (day 1, day 2 . . , day 14, respectively).
The rats were subjected to mechanical allodynia tests 1 h before and after administration of the test articles according to the method as recited in Example 1 on day 7 (D7) and day 14 (D14), respectively.

[2] = tested on: chemotherapy-induced peripheral neuropathy model induced by cisplatin in mice; experiment: Cancer pain associated with CIPN model induced by cisplatin in mice, mechanical allodynia test; type: in vivo, mouse; conditions: C57BL/6 mice; for pain thresholds (50% PWT) of treatment groups vs model group, preventive effect: 15 mg/kg i.p. qd or bid in parallel with cisplatin
Procedure: The experiments in this Example were divided into two parts. In the first part (Part I), the administration of SEQ ID NO: 29 was performed in parallel with modeling to explore the preventive effect of the polypeptide of the present disclosure on cancer pain associated with CIPN, in particular CIPN induced by cisplatin. In the second part (Part II), after elution of SEQ ID NO: 29 from the mice's bodies, mechanical allodynia tests were performed on the mice to confirm that the animals still had the cancer pain associated with CIPN, and to explore the therapeutic effect of the polypeptide of the present disclosure on cancer pain associated with CIPN after modeling.
44 male C57BL/6 mice weighting 20 to 25 g were randomly divided into 4 groups, with 8 mice in the control group (Group 1, administered with vehicle (normal saline)), 12 mice in the model group (Group 2, administered with vehicle (normal saline) and cisplatin (2.3 mg/kg, i.p., qd)), 12 mice in the treatment group (qd) (Group 3, administered with SEQ ID NO: 29 (15 mg/kg, i.p., qd) and cisplatin (2.3 mg/kg, i.p., qd)) and 12 mice in the treatment group (bid) (Group 4, administered with SEQ ID NO: 29 (15 mg/kg, i.p., bid) and cisplatin (2.3 mg/kg, i.p., qd)).
Administration of SEQ ID NO: 29 was performed on scheduled dates. Briefly, SEQ ID NO: 29 was administered qd or bid by intraperitoneal injection on each day from Day 1 to Day 11, followed by a washing-out period ranging from Day 12 to Day 23. Afterwards, the administration of SEQ ID NO: 29 was resumed on the basis of the same regimen as above, lasting from Day 24 to Day 30.
The mice were subjected to mechanical allodynia tests 0 h before administration and 2 h after the first administration of the test articles (normal saline or SEQ ID NO: 29) according to the method as recited in Example 1 on Day 6, Day 10, Day 23 and Day 30, respectively.

B1: SEQ ID NO: 29: exemplary polypeptide of the present disclosure; artificial polypeptide of formula (I) X-Y (protein)
chain: SEKKQPVDLGLLEEDDEFEEFPAEDWAGLDEDEDAHVWEDNWDDDNVEDDFSNQLRATVLLMILVAETPYGAYVLHQKGRMASAFLAA
B1 was tested, and the “analgetic effect (50% PWT)” value (SNL pain model in rats; i.v. single administration (SEQ ID NO: 29 30 and 60 mg/kg; SEQ ID NO: 90 and 93 60 mg/kg)) was “certain analgetic effect”, the “analgetic effect of 60 mg/kg compared with 30 mg/kg (50% PWT)” value (SNL pain model in rats; i.v. single administration) was “much higher than that produced from the dose of 30 mg SEQ ID NO: 29/kg” and the “course of pain thresholds (50% PWT) of treatment group vs model group” value ([1]; 60 mg/kg i.v. once a day for 14 days) was “increased gradually with the increase of the number of administrations”. For the same molecule, the “pain thresholds (50% PWT) of treatment group vs model group” value ([1]; 1 h after administration on day 7 (D7)) was “increased significantly”, the “pain thresholds (50% PWT) of treatment group vs model group” value ([1]; 1 h after administration on day 14 (D14)) was “increased significantly” and the “pain thresholds (50% PWT) of treatment group vs model group” value ([1]; before administration on day 7 (D7)) was “no significant difference”. The “pain thresholds (50% PWT) of treatment group vs model group” value ([1]; before administration on day 14 (D14)) was “increased significantly”, the “pain thresholds (50% PWT) of treatment groups, therapeutic effect” value ([2]; 15 mg/kg i.p. qd or bid Day 24 to Day 30, Day 30 vs Day 23) was “significantly increased” and the “pain thresholds (50% PWT) of treatment groups vs model group, preventive effect” value ([2]; Day 6) was “significantly higher than those of the mice from the model group”. For the same molecule, the “pain thresholds (50% PWT) of treatment groups vs model group, preventive effect” value ([2]; Day 10) was “significantly higher than those of the mice from the model group” and the “levels of pain thresholds under different dosing frequency” value ([2]; 15 mg/kg i.p., qd vs bid) was “dose-related”.
